Laboratory results as given in IntAct's records for PubMed 23386062.

B1: Ras-related protein Rab-9A (Homo sapiens), P51151 (parent)
chain: MAGKSSLFKVILLGDGGVGKSSLMNRYVTNKFDTQLFHTIGVEFLNKDLEVDGHFVTMQIWDTAGQERFRSLRTPFYRGSDCCLLTFSVDDSQSFQNLSNWKKEFIYYADVKEPESFPFVILGNKIDISERQVSTEEAQAWCRDNGDYPYFETSAKDATNVAAAFEEAVRRVLATEDRSDHLIQTDTVNLHRKPKPSSSCC
B2: Ras-related protein Rab-4B (Rattus norvegicus (Rat)), P51146 (parent)
chain: MAETYDFLFKFLVIGSAGTGKSCLLHQFIENKFKQDSNHTIGVEFGSRVVNVGGKTVKLQIWDTAGQERFRSVTRSYYRGAAGALLVYDITSRETYNSLAAWLTDARTLASPNIVVILCGNKKDLDPEREVTFLEASRFAQENELMFLETSALTGENVEEAFLKCARTILNKIDSGELDPERMGSGIQYGDISLRQLRQPRSAQAVAPQPCGC

Variants of: B1
Details: with nisch_human NISCH

| Variant | effect of a mutation on the interaction |
| --- | --- |
| S21D | disrupting interaction |

Variants of: B2
Details: with nisch_human NISCH

| Variant | effect of a mutation on the interaction |
| --- | --- |
| S22N | disrupting interaction |
